According to patent publication US20240207432A1 (BIOSION, published 2024):

T1: human TROP2-his protein (human, UniProt P09758 27-274)
T1 construct: Biotin-labelled in the ELISAs, unlabelled analyte in Biacore; also called biotin-labeled human TROP2-his protein; biotin human Trop2-his
T1 sequence: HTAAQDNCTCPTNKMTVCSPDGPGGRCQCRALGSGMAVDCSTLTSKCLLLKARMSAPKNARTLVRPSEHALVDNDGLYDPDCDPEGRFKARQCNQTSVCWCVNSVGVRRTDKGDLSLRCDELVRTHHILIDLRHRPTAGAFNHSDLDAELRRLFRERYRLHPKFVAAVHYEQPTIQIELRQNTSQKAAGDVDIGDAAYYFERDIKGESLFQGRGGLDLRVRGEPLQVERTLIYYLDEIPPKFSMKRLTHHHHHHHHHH

T2: cynomolgus TROP2-his protein (cynomolgus monkey, UniProt P09758 27-272 (human entry), limits assumed)
T2 construct: no cleavage site is stated; also called Cynomolgus monkey TROP2-his protein; monkey TROP2
T2 chain: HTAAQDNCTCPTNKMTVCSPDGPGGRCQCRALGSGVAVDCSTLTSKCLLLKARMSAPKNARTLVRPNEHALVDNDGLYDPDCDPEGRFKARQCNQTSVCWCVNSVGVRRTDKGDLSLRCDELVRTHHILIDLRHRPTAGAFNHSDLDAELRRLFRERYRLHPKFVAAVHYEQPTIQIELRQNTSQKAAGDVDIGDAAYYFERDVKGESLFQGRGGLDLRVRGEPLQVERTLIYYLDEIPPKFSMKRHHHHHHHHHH

T3: full length human TROP2 on 293F-TROP2 cells (human, UniProt P09758 27-323)
T3 construct: also called 293F-TROP2 cells (clone ID #3A8); cell surface TROP2
T3 sequence: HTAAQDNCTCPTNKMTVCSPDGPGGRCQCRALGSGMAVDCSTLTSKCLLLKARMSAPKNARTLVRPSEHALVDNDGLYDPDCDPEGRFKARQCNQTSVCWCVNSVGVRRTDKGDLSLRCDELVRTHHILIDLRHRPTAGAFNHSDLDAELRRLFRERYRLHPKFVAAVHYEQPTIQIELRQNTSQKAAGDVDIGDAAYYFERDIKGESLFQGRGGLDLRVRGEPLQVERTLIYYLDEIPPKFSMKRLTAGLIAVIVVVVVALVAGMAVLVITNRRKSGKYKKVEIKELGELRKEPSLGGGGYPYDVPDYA


Legend:
human TROP2-his protein [1] = target: T1, human TROP2-his protein; assay: capture ELISA, captured antibody, biotin human TROP2-his in solution, OD(450-630)
[2] = target: T2, cynomolgus TROP2-his protein; assay: indirect ELISA, cynomolgus TROP2-his coated at 2 ug/mL, OD(450-630)
Description: The anti-TROP2 antibodies of the disclosure were tested for their cross-reaction with cynomolgus TROP2 proteins. Briefly, 96-well micro plates were coated with 100 μl 2 μg/ml cynomolgus TROP2-his proteins (prepared in-house with SEQ ID NO: 70) in carbonate/bicarbonate buffer (pH 9.6) overnight at 4° C. ELISA plates were washed once with wash buffer (PBS+0.05% v/v Tween-20, PBST) and then blocked with 200 μl/well blocking buffer (5% w/v non-fatty milk in PBST) for 2 hours at 37° C. […] After a final wash, plates were incubated with 100 μl/well TMB (Innoreagents) at room temperature. The reaction was stopped 3-10 minutes later at room temperature with 50 μl/well 1M H₂SO₄, and the absorbance of each well was read on a microplate reader using dual wavelength mode with 450 nm for TMB and 630 nm as the reference wavelength. The OD (450-630) values were plotted against antibody concentration. Data was analyzed using Graphpad Prism software and EC₅₀ values were reported.

[3] = target: T2, cynomolgus TROP2-his protein; assay: SPR Biacore, antibody captured on anti-human IgG CM5 chip, TROP2-his analyte
Description: (§1) Un-reacted moieties on the chip (biosensor) surface were blocked with ethanolamine. […] The antigen-antibody association kinetics was followed for 2 minutes and the dissociation kinetics was followed for 10 minutes. The association and dissociation curves were fit to a 1:1 Langmuir binding model using BIAcore evaluation software.

human TROP2-his protein [4] = target: T1, human TROP2-his protein; assay: as above
Description: as §1

human TROP2-his protein [5] = target: T1, human TROP2-his protein; assay: epitope grouping ELISA, 15 ug/ml antibody premixed with biotin human TROP2-his; competitor: coated huA1E4F7D4-V16
Description: (§2) Firstly, capture ELISA was performed to determine the concentration of biotin-labeled human Trop2 proteins appropriate for the epitope binning test. […] The plates were washed for 4 times, added with 100 μl/well of serially diluted biotin human Trop2-his proteins (SEQ ID NO: 67) in PBST with 2.5% non-fatty milk (starting from 1.3 μg/ml with a 5-fold serial dilution), and incubated for 40 min at 37° C. Then the plates were washed for 4 times and added with 100 μl/vell of HRP-streptavidin (Jackson Immuno Research, Cat #016-030-084). The plates were incubated for another 40 min at 37° C. Then the plates were washed again, and 100 μl/well TMB was added for color development at RT for 15 min followed by quenching with 50 μl 1M H₂SO₄. The OD values at 450 nm were read.
(§3) With the appropriate concentration determined above, epitope grouping ELISA was performed. […] ELISA plates were washed once with wash buffer (PBS+0.05% v/v Tween-20, PBST) and then blocked with 200 μl blocking buffer (5% w/w non-fatty milk in PBST) for 2 hours at 37° C. […] The mixtures were incubated at room temperature for 40 minutes. After plate washing for 4 times, the antibody/biotin-TROP2-his protein mixtures were added to the antibody coated plates, 100 μl per well, and incubated for another 40 min at 37° C. Then 100 μl/well of HRP-streptavidin was added and incubated for 40 min. Then OD₄₅₀ values were determined and the cross-competition capability was calculated (cross-competition capability of antibody X (%)=(OD₄₅₀ of Antibody X-[…] of Blank)/(OD₄₅₀ of no mAb-OD₄₃₀ of Blank)*100%).

human TROP2-his protein [6] = target: T1, human TROP2-his protein; assay: epitope grouping ELISA, 15 ug/ml antibody premixed with biotin human TROP2-his; competitor: coated BM2
Description: as §2, §3

human TROP2-his protein [7] = target: T1, human TROP2-his protein; assay: epitope grouping ELISA, 15 ug/ml antibody premixed with biotin human TROP2-his; competitor: coated BM1
Description: as §2, §3

[8] = target: T3, full length human TROP2 on 293F-TROP2 …; assay: FACS on 293F-TROP2 cells, MFI

Binder	EC50 (human TROP2-his protein [1]) [nM]	EC50 (read off the curve) [2] [nM]	Kd [3] [nM]	Kd (human TROP2-his protein [4]) [nM]	OD450 (human TROP2-his protein [5]) [OD450]	OD450 (human TROP2-his protein [6]) [OD450]	EC50 [2] [nM]	OD450 (human TROP2-his protein [7]) [OD450]	koff [3] [s⁻¹]	kon [3] [M⁻¹ s⁻¹]	koff (human TROP2-his protein [4]) [s⁻¹]	kon (human TROP2-his protein [4]) [M⁻¹ s⁻¹]	EC50 [8] [nM]
mouse antibody C1B3B12D2 (antibody, V domains shown, Mouse monoclonal IgG purified from hybridoma supernatant) VH: QVQLQQSGPELVRPGTSVKMSCKAAGYTFTKFWIGWVKQRPGHGLEWIGNIYPGGAYINYNENFKGKATLTADTFSSTAYMQLNSLTSADSAIYYCAREGSSGYWGQGTTLTVSS VL: DIVMTQSPSSLTVTAGEKVTLSCKCSQSLLNSGTQENYLTWYQQKPGQPPKMLIYWASIREPGVPDRFTGSGSGTDFTLTINNVQAEDLAVYYCQHDYSYPFTFGSGTKLEIK	0.117	~0.6	–	–	–	–	–	–	–	–	–	–	–
benchmark (in house prepared sacituzumab) (antibody, human IgG1, kappa, V domains shown, also called BM; BM1) VH: SVQLQQSGSELKKPGASVKVSCKASGYTFTNYGMNWVKQAPGQGLKWMGWINTYTGEPTYTDDFKGRFAFSLDTSVSTAYLQISSLKADDTAVYFCARGGFGSSYWYFDVWGQGSLVTVSS VL: DIQLTQSPSSLSASVGDRVSITCKASQDVSIAVAWYQQKPGKAPKLLIYSASYRYTGVPDRFSGSGSGTDFTLTISSLQPEDFAVYYCQQHYITPLTFGAGTKVEIKR	–	–	0.529	0.983	1.61	0.031	0.385	0.048	–	–	–	–	–
huA1E4F7D4-V16 (antibody, human IgG1, kappa, V domains shown, Positions of the X residues are given in the claims; also called humanized antibody huA1E4F7D4-V16) VH: QVQLVQSGAEVKKPGASVKVSCKASGYSFTTHWIHWVRQAPGQGLEWIGTIFPSNAYAVYNQKFRDRATMTADTSISTAYIELSRLRSDDTAVYYCARASYFDYWGQGTTVTVSS VL: EIVLTQSPATLSLSPGERATLSCRASQNIGTSIHWFQQKPGGAPRLLIKYASESISGIPSRFSGSGSGTDFTLTISSLEPEDFAVYYCQHSHSWPFTFGQGTKLEIKR	–	–	0.132	0.183	0.027	1.92	–	1.42	0.000164	1.25e+06	0.000195	1.06e+06	0.362
mouse antibody A1E4F7D4 (antibody, V domains shown, Mouse monoclonal IgG purified from hybridoma supernatant; also called Mouse A1E4F7D4) VH: QVQLQQSGAELAKPGTSVKMSCEASGYSFTTHWIHWMKQRPGQGLEWIGTIFPSNAYAVYNQKFRDRAIMTADRSSTTAYIQLTGLTSEDSAVYYCARASYFDYWGQGTTLTVSS VL: DILLTQSPATLSVSPGERVTFSCRASQNIGTSIHWFQQRTTGSPRLLIKYASESISGIPSRFSGSGSGTDFTLHINSVESEDIAHYYCQHSHSWPFTFGSGTKLEIQ	0.261	–	–	–	–	–	–	–	–	–	–	–	–
